Results from article PMC9482650, “Quantitative fragmentomics allow affinity mapping of interactomes” (Nature Communications, 2022).

T1: GRIP1_7, Q9Y3R0
T1 sequence (Q9Y3R0 999-1096, limits assumed, looked up): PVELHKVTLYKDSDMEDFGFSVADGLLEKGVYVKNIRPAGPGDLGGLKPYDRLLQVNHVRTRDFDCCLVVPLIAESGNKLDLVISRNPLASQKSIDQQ

T2: APBA1_1, Q02410
T2 sequence (Q02410 651-752, limits assumed, looked up): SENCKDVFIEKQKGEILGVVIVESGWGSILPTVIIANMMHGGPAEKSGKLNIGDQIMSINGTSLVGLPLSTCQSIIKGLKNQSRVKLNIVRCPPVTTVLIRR

T3: TJP3_3, O95049
T3 sequence (O95049 375-456, limits assumed, looked up): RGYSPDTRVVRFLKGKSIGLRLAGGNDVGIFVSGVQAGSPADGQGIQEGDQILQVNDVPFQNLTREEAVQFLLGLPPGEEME

T4: DLG3_3, Q92796
T4 sequence (Q92796 374-475, limits assumed, looked up): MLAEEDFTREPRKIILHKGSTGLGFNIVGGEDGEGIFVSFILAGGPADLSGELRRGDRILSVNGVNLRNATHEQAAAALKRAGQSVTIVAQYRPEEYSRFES

T5: SNTG2, Q9NY99
T5 sequence (Q9NY99 68-166, limits assumed, looked up): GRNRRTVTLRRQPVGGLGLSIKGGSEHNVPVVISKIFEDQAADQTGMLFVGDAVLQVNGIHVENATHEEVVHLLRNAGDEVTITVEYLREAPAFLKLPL

T6: LIN7B, Q9HAP6
T6 sequence (Q9HAP6 88-185, limits assumed, looked up): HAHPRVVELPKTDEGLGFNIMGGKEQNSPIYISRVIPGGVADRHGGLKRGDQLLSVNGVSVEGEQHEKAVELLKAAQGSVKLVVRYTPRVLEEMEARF

T7: GRIP1_2, Q9Y3R0
T7 sequence (Q9Y3R0 145-248, limits assumed, looked up): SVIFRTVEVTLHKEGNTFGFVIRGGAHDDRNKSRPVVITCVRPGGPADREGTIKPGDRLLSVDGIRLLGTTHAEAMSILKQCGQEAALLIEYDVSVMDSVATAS

T8: LIN7C, Q9NUP9
T8 sequence (Q9NUP9 88-185, limits assumed, looked up): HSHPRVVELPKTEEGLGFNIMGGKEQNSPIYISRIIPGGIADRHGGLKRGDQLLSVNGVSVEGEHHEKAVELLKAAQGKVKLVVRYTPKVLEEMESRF


How the values were obtained:
Assay in all cases: holdup assay
Parameters in all cases: key: below the threshold = too weak to quantify, mostly under pKd 3.1 to 4
Details in all cases: plain residues with an end cap or a label only (N-terminal biotin on a linker: ttds)
MAST2, Q6P0Q8 = target: MAST2, Q6P0Q8
GRIP1_7, Q9Y3R0 = target: T1, GRIP1_7, Q9Y3R0
APBA1_1, Q02410 = target: T2, APBA1_1, Q02410
SCRIB_2, Q14160 = target: SCRIB_2, Q14160
SCRIB_3, Q14160 = target: SCRIB_3, Q14160
Inadl_1, Q8NI35 = target: Inadl_1, Q8NI35
PARD3_3, Q8TEW0 = target: PARD3_3, Q8TEW0
Inadl_8, Q8NI35 = target: Inadl_8, Q8NI35
MAST1, Q9Y2H9 = target: MAST1, Q9Y2H9
LNX1_1, Q8TBB1 = target: LNX1_1, Q8TBB1
PDLIM1, O00151 = target: PDLIM1, O00151
AHNAK1, Q09666 = target: AHNAK1, Q09666
NHERF4_1, Q86UT5-2 = target: NHERF4_1, Q86UT5-2
TJP3_3, O95049 = target: T3, TJP3_3, O95049
GORASP1, Q9BQQ3 = target: GORASP1, Q9BQQ3
HTRA2, O43464 = target: HTRA2, O43464
ARHGEF12, Q9NZN5-2 = target: ARHGEF12, Q9NZN5-2
DLG3_3, Q92796 = target: T4, DLG3_3, Q92796
MAGI2_5, Q86UL8 = target: MAGI2_5, Q86UL8
SNTG2, Q9NY99 = target: T5, SNTG2, Q9NY99
LIN7B, Q9HAP6 = target: T6, LIN7B, Q9HAP6
CASK, O14936 = target: CASK, O14936
TJP1_2, Q07157 = target: TJP1_2, Q07157
GRIP1_2, Q9Y3R0 = target: T7, GRIP1_2, Q9Y3R0
NHERF2_2, Q15599 = target: NHERF2_2, Q15599
SCRIB_1, Q14160 = target: SCRIB_1, Q14160
MAGI2_3, Q86UL8 = target: MAGI2_3, Q86UL8
SNX27, Q96L92 = target: SNX27, Q96L92
LIN7C, Q9NUP9 = target: T8, LIN7C, Q9NUP9
PTPN3, P26045 = target: PTPN3, P26045
MAGI3_2, Q5TCQ9 = target: MAGI3_2, Q5TCQ9
Chain of MAGI3_2, Q5TCQ9 (Q5TCQ9 398-503): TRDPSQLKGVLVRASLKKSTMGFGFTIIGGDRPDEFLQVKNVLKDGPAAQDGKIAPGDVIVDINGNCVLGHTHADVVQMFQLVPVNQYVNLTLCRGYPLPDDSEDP

Chain of NHERF2_2, Q15599 (Q15599 142-238): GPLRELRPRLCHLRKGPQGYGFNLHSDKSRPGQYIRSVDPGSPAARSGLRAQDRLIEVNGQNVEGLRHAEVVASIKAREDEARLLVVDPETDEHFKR
Chain of Inadl_8, Q8NI35 (Q8NI35 1425-1530): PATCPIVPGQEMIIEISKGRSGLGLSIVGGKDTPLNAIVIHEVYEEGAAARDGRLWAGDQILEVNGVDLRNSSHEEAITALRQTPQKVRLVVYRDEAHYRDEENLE
Chain of PARD3_3, Q8TEW0 (Q8TEW0 582-685): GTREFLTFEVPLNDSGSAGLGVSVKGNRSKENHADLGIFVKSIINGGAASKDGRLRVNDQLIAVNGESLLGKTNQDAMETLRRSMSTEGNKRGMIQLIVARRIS
Chain of MAGI2_5, Q86UL8 (Q86UL8 915-1017): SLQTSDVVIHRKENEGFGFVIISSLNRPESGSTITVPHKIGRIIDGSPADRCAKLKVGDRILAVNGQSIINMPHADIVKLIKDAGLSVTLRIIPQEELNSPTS
Chain of CASK, O14936 (O14936 487-570): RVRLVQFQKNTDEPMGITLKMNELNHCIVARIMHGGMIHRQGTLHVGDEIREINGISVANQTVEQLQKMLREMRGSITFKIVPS
Chain of SCRIB_1, Q14160 (Q14160 718-814): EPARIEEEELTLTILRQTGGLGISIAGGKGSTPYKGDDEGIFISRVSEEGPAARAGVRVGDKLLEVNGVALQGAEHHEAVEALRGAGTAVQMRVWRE
Chain of NHERF4_1, Q86UT5-2 (Q86UT5 other isoform, or with tags, fused parts or gaps): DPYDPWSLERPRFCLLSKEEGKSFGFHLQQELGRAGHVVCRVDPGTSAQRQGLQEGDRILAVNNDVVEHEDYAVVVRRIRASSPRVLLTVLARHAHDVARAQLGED
Chain of PTPN3, P26045 (P26045 505-587): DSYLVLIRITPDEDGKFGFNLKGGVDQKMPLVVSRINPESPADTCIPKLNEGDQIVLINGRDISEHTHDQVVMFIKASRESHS
Chain of MAST1, Q9Y2H9 (Q9Y2H9 962-1065): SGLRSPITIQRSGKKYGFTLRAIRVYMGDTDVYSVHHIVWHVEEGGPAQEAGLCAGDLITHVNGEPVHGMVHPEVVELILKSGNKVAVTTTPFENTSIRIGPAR
Chain of MAST2, Q6P0Q8 (Q6P0Q8 1099-1202): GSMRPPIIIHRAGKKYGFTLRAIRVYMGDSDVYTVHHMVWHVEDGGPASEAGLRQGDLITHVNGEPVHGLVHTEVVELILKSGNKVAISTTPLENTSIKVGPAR
Chain of LNX1_1, Q8TBB1 (Q8TBB1 261-371): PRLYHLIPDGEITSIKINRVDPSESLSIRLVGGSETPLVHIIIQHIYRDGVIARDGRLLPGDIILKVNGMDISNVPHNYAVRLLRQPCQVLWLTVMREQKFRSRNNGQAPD
Chain of TJP1_2, Q07157 (Q07157 181-274): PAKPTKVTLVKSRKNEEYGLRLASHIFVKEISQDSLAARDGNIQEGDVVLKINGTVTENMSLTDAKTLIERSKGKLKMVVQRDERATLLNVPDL
Chain of HTRA2, O43464 (O43464 355-458): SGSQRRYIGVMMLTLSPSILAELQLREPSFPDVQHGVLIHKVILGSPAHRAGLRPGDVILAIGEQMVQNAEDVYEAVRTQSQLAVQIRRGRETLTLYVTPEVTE
Chain of MAGI2_3, Q86UL8 (Q86UL8 600-682): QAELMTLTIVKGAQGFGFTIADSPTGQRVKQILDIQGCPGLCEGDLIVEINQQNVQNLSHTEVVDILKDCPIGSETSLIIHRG
Chain of Inadl_1, Q8NI35 (Q8NI35 113-229): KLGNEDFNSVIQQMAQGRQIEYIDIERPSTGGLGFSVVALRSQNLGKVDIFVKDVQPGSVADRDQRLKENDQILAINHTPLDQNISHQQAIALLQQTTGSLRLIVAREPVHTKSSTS
Chain of ARHGEF12, Q9NZN5-2 (Q9NZN5 other isoform, or with tags, fused parts or gaps): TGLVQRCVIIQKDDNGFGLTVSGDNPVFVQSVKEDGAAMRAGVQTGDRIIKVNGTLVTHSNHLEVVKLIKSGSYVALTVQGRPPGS
Chain of GORASP1, Q9BQQ3 (Q9BQQ3 1-208): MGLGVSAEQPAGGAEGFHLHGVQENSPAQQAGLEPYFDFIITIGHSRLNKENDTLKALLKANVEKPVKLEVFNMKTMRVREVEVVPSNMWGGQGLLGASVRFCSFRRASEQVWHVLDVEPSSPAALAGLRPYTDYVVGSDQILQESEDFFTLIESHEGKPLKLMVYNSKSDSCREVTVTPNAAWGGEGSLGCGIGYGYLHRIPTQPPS
Chain of PDLIM1, O00151 (O00151 1-87): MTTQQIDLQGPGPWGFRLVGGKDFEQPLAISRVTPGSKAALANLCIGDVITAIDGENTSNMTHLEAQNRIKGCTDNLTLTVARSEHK
Chain of AHNAK1, Q09666 (Q09666 4-100): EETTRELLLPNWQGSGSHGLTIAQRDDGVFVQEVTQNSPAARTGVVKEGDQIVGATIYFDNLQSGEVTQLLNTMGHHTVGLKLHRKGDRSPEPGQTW
Chain of SCRIB_3, Q14160 (Q14160 999-1103): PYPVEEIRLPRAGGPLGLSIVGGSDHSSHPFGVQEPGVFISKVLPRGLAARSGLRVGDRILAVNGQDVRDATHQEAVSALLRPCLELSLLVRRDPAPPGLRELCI
Chain of SCRIB_2, Q14160 (Q14160 857-960): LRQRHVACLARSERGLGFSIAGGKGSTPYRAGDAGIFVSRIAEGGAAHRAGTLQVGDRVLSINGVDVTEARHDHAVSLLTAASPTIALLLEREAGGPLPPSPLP

Row | Binder | pKd (MAST2, Q6P0Q8) | pKd (GRIP1_7, Q9Y3R0) | pKd (APBA1_1, Q02410) | pKd (SCRIB_2, Q14160) | pKd (SCRIB_3, Q14160) | pKd (Inadl_1, Q8NI35) | pKd (PARD3_3, Q8TEW0) | pKd (Inadl_8, Q8NI35) | pKd (MAST1, Q9Y2H9) | pKd (LNX1_1, Q8TBB1) | pKd (PDLIM1, O00151) | pKd (AHNAK1, Q09666) | pKd (NHERF4_1, Q86UT5-2) | pKd (TJP3_3, O95049) | pKd (GORASP1, Q9BQQ3) | pKd (HTRA2, O43464) | pKd (ARHGEF12, Q9NZN5-2) | pKd (DLG3_3, Q92796) | pKd (MAGI2_5, Q86UL8) | pKd (SNTG2, Q9NY99) | other results
1 | VDFPPKESSL [ACVR2A, P27037] | 5.05 | 3.47 | below the threshold | 3.48 | 4.88 | below the threshold | below the threshold | below the threshold | 4.77 | below the threshold | 3.24 | below the threshold | 3.35 | below the threshold | below the threshold | below the threshold | 4.2 | below the threshold | below the threshold | 4.11 | pKd (LIN7B, Q9HAP6): 3.54; pKd (CASK, O14936): below the threshold; pKd (TJP1_2, Q07157): below the threshold; pKd (GRIP1_2, Q9Y3R0): below the threshold; pKd (NHERF2_2, Q15599): 3.77; pKd (SCRIB_1, Q14160): 3.83; pKd (MAGI2_3, Q86UL8): below the threshold; pKd (SNX27, Q96L92): 4.38; pKd (LIN7C, Q9NUP9): 3.73; pKd (PTPN3, P26045): 4.87; pKd (MAGI3_2, Q5TCQ9): 3.3
2 | PVRVCEETSL [OTULIN, Q96BN8] | 5.28 | 3.75 | below the threshold | 4.7 | 5.64 | 3.7 | 3.59 | 3.61 | 5.3 | below the threshold | below the threshold | below the threshold | 4.02 | below the threshold | 3.64 | below the threshold | 4.8 | 4.02 | 4.13 | 4.63 | pKd (LIN7B, Q9HAP6): 3.85; pKd (CASK, O14936): below the threshold; pKd (TJP1_2, Q07157): below the threshold; pKd (GRIP1_2, Q9Y3R0): 3.69; pKd (NHERF2_2, Q15599): 5.21; pKd (SCRIB_1, Q14160): 5.44; pKd (MAGI2_3, Q86UL8): below the threshold; pKd (SNX27, Q96L92): 5.58; pKd (LIN7C, Q9NUP9): 4.06; pKd (PTPN3, P26045): 5.01; pKd (MAGI3_2, Q5TCQ9): 3.71
3 | FHPLGADSQV [SLC2A1, P11166] | 4.25 | 3.55 | below the threshold | below the threshold | 3.58 | 3.49 | below the threshold | below the threshold | below the threshold | below the threshold | below the threshold | below the threshold | below the threshold | below the threshold | below the threshold | below the threshold | below the threshold | below the threshold | below the threshold | below the threshold | pKd (LIN7B, Q9HAP6): below the threshold; pKd (CASK, O14936): below the threshold; pKd (TJP1_2, Q07157): below the threshold; pKd (GRIP1_2, Q9Y3R0): below the threshold; pKd (NHERF2_2, Q15599): below the threshold; pKd (SCRIB_1, Q14160): 4.02; pKd (MAGI2_3, Q86UL8): below the threshold; pKd (SNX27, Q96L92): 4.05; pKd (LIN7C, Q9NUP9): below the threshold; pKd (PTPN3, P26045): 4.1; pKd (MAGI3_2, Q5TCQ9): below the threshold
4 | SGSRPSATVV [HPV73-E6, Q82005] | 3.88 | 3.83 | below the threshold | 3.56 | below the threshold | below the threshold | 3.76 | 3.53 | 3.73 | 3.74 | 3.48 | below the threshold | below the threshold | below the threshold | 4.19 | below the threshold | below the threshold | below the threshold | 3.7 | below the threshold | pKd (LIN7B, Q9HAP6): below the threshold; pKd (CASK, O14936): below the threshold; pKd (TJP1_2, Q07157): below the threshold; pKd (GRIP1_2, Q9Y3R0): below the threshold; pKd (NHERF2_2, Q15599): below the threshold; pKd (SCRIB_1, Q14160): below the threshold; pKd (MAGI2_3, Q86UL8): 3.62; pKd (SNX27, Q96L92): below the threshold; pKd (LIN7C, Q9NUP9): 3.81; pKd (PTPN3, P26045): below the threshold; pKd (MAGI3_2, Q5TCQ9): 4.91
